US20240199740A1 (Ablynx, published 2024)

Assays:
[1] = target: T1, human CD123 expressed on cells (human, UniProt P26951 19-378); assay: flow cytometry competition, MOLM-13 cells, competitor A0110056A10-Alexa647 (0.4 nM)
T1 construct: the cell line is named under assay; also called huCD123; IL-3Rα
Protocol: (§1) Next to binding to the MOLM-13 and CHO Flp-In huCD123 cells, binding to cyno CD123 transfected HEK Flp-In cells was assessed.

[2] = target: cynomolgus TCR/CD3 expressed on cells (cynomolgus); assay: cell-based or functional assay
[3] = target: T1, human CD123 expressed on cells; assay: cell-based or functional assay
[4] = target: cynomolgus TCR/CD3 expressed on cells (cynomolgus); assay: cell-based or functional assay; remark: listed apart in the source
[5] = target: T1, human CD123 expressed on cells; assay: cell-based or functional assay; remark: listed apart in the source
[6] = target: T2, cynomolgus TCR/CD3 expressed on cells (cynomolgus); assay: flow cytometry competition, HSC-F cells, competitor T017000099 (500 nM)
T2 construct: whole, on cells; Native complex with CD3 chains; the cell type is named under assay or readout; also called cyno TCR/CD3; CD3/TCR expressed on HSC-F
Protocol: Cells were washed and incubated with Propidium Iodine to stain for dead cells, which are then removed during the gating procedure. The cells were then analysed via a BD FACSArray. First a P1 population which represented more than 80% of the total cell population was selected based on FSC-SSC distribution. In this gate, 10000 cells were counted during acquisition. From this population the PI+ cells (dead cells) were excluded and the median APC value was calculated.

[7] = target: T1, human CD123 expressed on cells; assay: flow cytometry competition, CHO Flp-In huCD123 cells, competitor A0110056A10-Alexa647 (0.9 nM)
Protocol: as §1

[8] = target: T3, cynomolgus CD123 expressed on HEK Flp-In cells (cynomolgus); assay: flow cytometry competition, HEK Flp-In cyCD123 cells, competitor A0110056A10-Alexa647 (0.9 nM)
T3 construct: EHH61867.1; also called cyCD123; cyno CD123
T3 chain: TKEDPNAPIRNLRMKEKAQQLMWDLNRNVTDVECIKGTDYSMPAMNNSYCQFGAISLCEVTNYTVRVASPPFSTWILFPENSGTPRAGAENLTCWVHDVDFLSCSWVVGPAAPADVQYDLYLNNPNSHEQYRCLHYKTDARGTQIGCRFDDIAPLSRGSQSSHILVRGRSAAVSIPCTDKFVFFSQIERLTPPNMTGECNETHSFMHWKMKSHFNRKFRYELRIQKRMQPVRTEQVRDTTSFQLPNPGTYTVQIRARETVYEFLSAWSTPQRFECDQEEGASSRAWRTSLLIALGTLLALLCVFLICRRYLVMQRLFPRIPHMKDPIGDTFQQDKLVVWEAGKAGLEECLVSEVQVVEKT
Protocol: as §1

[9] = target: T1, human CD123 expressed on cells; assay: cell-based or functional assay; remark: listed apart in the source
[10] = target: T1, human CD123 expressed on cells; assay: cell-based or functional assay; remark: listed apart in the source
[11] = target: T4, human CD123 (human, UniProt P26951 19-378); assay: cell-based or functional assay
[12] = target: T4, human CD123; assay: cell-based or functional assay; remark: listed apart in the source
[13] = target: T5, human TCR/CD3 on purified primary human T cells (human, UniProt P01848 1-140; P01850 1-176); assay: flow cytometry, purified primary human T cells
T5 construct: whole, on cells; Native TCR alpha/beta with the CD3 chains on T cells isolated from buffy coat blood; also called purified primary T cells
Protocol: Dose-dependent binding of the purified monovalent anti-TCR Nanobodies to human TCRα/β (2XN9)/CD3 expressed on CHO-K1 cells and to purified primary human T cells was evaluated by flow cytometry. In brief, cells were harvested and transferred to a V-bottom 96-well plate (1×10⁵ cells/well) and serial dilutions of Nanobodies (starting from 1 pM) were allowed to associate for 30 minutes at 4° C. in FACS buffer. […] After incubation, cells were washed 3 times with FACS Buffer. Subsequently, cells were resuspended in FACS buffer supplemented with 5 nM TOPRO3 (Molecular Probes, T3605) to distinguish live from dead cells, which are removed during the gating procedure. Cells were analysed using a FACS Array flow cytometer (BD Biosciences) and Flowing Software. First a P1 population which represented more than 80% of the total cell population was selected based on FSC-SSC distribution. In this gate, 10000 cells were counted during acquisition. From this population the TOPRO+ cells (dead cells) were excluded and the median PE value was calculated.

[14] = target: T6, soluble recombinant cynomolgus TCR α/β-zipper protein (cynomolgus/rhesus monkey); assay: ELISA, directly coated soluble cynomolgus TCR-zipper protein
T6 construct: Made in house in CHOK1SV cells; also called recombinant cynomolgus soluble TCRα/β-zipper protein; cynomolgus/rhesus monkey TCR α/β; not shown: the zipper protein (O'Shea et al. 1993) fused C-terminally to each chain, and any linker to it
T6 alpha: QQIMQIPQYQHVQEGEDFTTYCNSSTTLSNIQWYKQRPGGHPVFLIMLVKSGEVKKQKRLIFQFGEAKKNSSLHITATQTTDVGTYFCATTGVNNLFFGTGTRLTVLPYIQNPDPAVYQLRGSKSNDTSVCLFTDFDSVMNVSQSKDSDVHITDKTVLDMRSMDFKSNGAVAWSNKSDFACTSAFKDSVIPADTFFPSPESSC
T6 beta: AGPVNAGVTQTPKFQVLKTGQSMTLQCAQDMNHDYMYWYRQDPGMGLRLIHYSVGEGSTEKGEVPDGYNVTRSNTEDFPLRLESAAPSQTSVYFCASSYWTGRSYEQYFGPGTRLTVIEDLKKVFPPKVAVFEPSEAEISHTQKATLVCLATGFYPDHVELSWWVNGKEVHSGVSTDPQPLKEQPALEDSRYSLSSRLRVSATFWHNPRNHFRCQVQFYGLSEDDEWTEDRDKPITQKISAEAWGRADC
Protocol: Quality of the TCR α/β zipper proteins was assessed in an ELISA binding assay. […] After an overnight incubation, plates were washed and blocked with PBS+1% casein for 1 h at room temperature. […] The reaction was stopped with 2M H₂SO₄ and the dose dependent binding was determined by measuring the OD at 450 nm using the Tecan sunrise 4 (FIG. 2).

[15] = target: T6, soluble recombinant cynomolgus TCR …; assay: BLI (Octet RED384), cynomolgus TCR-zipper protein immobilized
Protocol: Binding affinities were measured using Bio-Layer Interferometry (BLI) on an Octet RED384 instrument (Pall ForteBio Corp.). […] For kinetic analysis, sensors were first dipped into running buffer (10 mM Hepes, 150 mM NaCl, 0.05% p20, pH7.4 from GE Healthcare Life Sciences) to determine baseline setting. […] Affinity constants (KD) were calculated applying a 1:1 interaction model using the ForteBio Data Analysis software.

[16] = target: T7, human CD3 expressed on HEK293H cells (human, UniProt P04234 22-171; P09693 23-182; P07766 23-207; P20963 22-164); assay: flow cytometry, HEK293H human CD3 cells
T7 construct: also called HEK293H CD3; HEK293H human CD3
Source text: The parental HEK293H cell line was included as TCR/CD3 negative cell line.

T5 sequence (P01848 whole entry, chain 1 of 2): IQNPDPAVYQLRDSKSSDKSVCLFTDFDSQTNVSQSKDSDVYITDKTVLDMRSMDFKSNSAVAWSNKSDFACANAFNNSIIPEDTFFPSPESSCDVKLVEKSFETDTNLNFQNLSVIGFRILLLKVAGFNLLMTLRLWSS
T5 sequence (P01850 whole entry, chain 2 of 2): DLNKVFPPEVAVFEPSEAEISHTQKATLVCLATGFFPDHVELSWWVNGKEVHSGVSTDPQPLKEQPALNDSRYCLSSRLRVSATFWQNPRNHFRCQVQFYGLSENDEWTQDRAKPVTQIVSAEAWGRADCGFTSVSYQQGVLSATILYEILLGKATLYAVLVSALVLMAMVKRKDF
T7 sequence (P04234 22-171 limits assumed, chain 1 of 4): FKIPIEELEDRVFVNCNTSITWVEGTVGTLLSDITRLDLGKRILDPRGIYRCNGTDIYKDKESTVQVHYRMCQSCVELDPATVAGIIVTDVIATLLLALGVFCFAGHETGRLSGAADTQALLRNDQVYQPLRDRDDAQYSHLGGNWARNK
T7 sequence (P09693 23-182 limits assumed, chain 2 of 4): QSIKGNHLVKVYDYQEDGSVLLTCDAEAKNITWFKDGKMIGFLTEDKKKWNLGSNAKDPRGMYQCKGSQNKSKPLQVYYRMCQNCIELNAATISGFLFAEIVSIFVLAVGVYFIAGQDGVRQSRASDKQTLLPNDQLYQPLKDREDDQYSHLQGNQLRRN
T7 sequence (P07766 23-207 limits assumed, chain 3 of 4): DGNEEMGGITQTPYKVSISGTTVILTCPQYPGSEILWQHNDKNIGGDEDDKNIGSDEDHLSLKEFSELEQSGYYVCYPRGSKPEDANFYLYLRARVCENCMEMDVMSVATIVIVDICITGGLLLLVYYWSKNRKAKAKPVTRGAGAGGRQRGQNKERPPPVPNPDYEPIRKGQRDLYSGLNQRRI
T7 sequence (P20963 22-164 limits assumed, chain 4 of 4): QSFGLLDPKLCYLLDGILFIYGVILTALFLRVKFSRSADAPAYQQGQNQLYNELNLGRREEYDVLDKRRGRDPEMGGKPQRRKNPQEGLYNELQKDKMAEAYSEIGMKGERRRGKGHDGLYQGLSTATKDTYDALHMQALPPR

B1: T017000128 (bispecific antibody)
chain: DVQLVESGGGLVQPGGSLRLSCVASGDVHKINFLGWYRQAPGKEREKVAHISIGDQTDYADSAKGRFTISRDESKNMVYLQMNSLKPEDTAVYFCRAFSRIYPYDYWGQGTLVTVSSGGGGSGGGGSGGGGSGGGGSGGGGSGGGGSGGGGSEVQLVESGGGLVQAGGSLRLSCAASGITSKINDMGWYRQTPGNYREWVASITATGTTNYRDSVKGRFTISRDNAKSTVYLQMNSLKPEDTTVYYCNTFPPISNFWGQGTLVTVSSA
notes: Multispecific Nanobody polypeptide expressed in Pichia
IC50 [1]: 3.1 nM | % lysis, redirected cyno T cell mediated killing of KG1a cells, flow cytometry [2]: 38% | EC50 (M), redirected cyno T cell mediated killing of KG1a cells, flow cytometry [2]: 3.2e-10 M | % lysis, redirected human T cell mediated killing of MOLM-13 cells, flow cytometry, E:T 10:1 [3]: 20% | EC50 (M), redirected human T cell mediated killing of MOLM-13 cells, flow cytometry, E:T 10:1 [3]: 1.5e-10 M | % lysis, redirected cyno T cell mediated killing of MOLM-13 cells, flow cytometry, E:T 10:1 [4]: 50% | EC50 (M), redirected cyno T cell mediated killing of MOLM-13 cells, flow cytometry, E:T 10:1 [4]: 1.8e-10 M | EC50 (M), human IL-6 secretion during human T cell mediated killing of CD123 transfected adherent target cells [5]: 6.9e-11 M | IC50 [6]: 630 nM | IC50 [7]: 5.8 nM | IC50 [8]: 31 nM | % lysis, redirected human T cell mediated killing of KG1a cells, flow cytometry, E:T 10:1 [9]: 28% | EC50 (M), redirected human T cell mediated killing of KG1a cells, flow cytometry, E:T 10:1 [9]: 8.7e-10 M | EC50 (M), IFN-γ secretion by cynomolgus T cells during killing of CD123 transfected adherent target cells [10]: 1e-10 M | EC50 (M), IFN-γ secretion by human T cells during killing of CD123 transfected adherent target cells [10]: 8.6e-11 M

B2: T017000138 (bispecific antibody)
chain: DVQLVESGGGLVQPGGSLRLSCVASGDVHKINFLGWYRQAPGKEREKVAHISIGDQTDYADSAKGRFTISRDESKNMVYLQMNSLKPEDTAVYFCRAFSRIYPYDYWGQGTLVTVSSGGGGSGGGGSGGGGSGGGGSGGGGSGGGGSGGGGSEVQLVESGGGLVQAGGSLRLSCAASGITSKINDMGWYRQTPGNYREWVASITATGTTNYRDSVKGRFTISRDNAKSTVYLQMNSLKPEDTTVYYCNTFPPISNFWGQGTLVTVSSGGGGSGGGGSGGGGSGGGGSGGGGSGGGGSGGGGSEVQLVESGGGLVQAGGPLRLSCAASGRTFSSYVMGWFRQAPGKEREFVAAIYWSNGKTQYTDSVKGRFTISGDNAKNTVYLQMNSLNPEDTAVYYCVADKDETGFRTLPIAYDYWGQGTLVTVSSA
EC50 (M), redirected cynomolgus T cell mediated killing of MOLM-13 cells, flow cytometry, E:T 10:1 [11]: 1.5e-10 M | EC50 (M), redirected human T cell mediated killing of MOLM-13 cells, flow cytometry, E:T 10:1 [11]: 1.1e-10 M | % lysis, redirected cynomolgus T cell mediated killing of KG1a cells, flow cytometry, E:T 10:1 [12]: 21% | % lysis, redirected human T cell mediated killing of KG1a cells, flow cytometry, E:T 10:1 [12]: 64% | EC50 (M), redirected cynomolgus T cell mediated killing of KG1a cells, flow cytometry, E:T 10:1 [12]: 2.8e-11 M | EC50 (M), redirected human T cell mediated killing of KG1a cells, flow cytometry, E:T 10:1 [12]: 1.6e-10 M

B3: T017000138 (bispecific antibody)
chain: DVQLVESGGGLVQPGGSLRLSCVASGDVHKINFLGWYRQAPGKEREKVAHISIGDQTDYADSAKGRFTISRDESKNMVYLQMNSLKPEDTAVYFCRAFSRIYPYDYWGQGTLVTVSSGGGGSGGGGSGGGGSGGGGSGGGGSGGGGSGGGGSEVQLVESGGGLVQAGGSLRLSCAASGITSKINDMGWYRQTPGNYREWVASITATGTTNYRDSVKGRFTISRDNAKSTVYLQMNSLKPEDTTVYYCNTFPPISNFWGQGTLVTVSSGGGGSGGGGSGGGGSGGGGSGGGGSGGGGSGGGGSEVQLVESGGGLVQAGGPLRLSCAASGRTFSSYVMGWFRQAPGKEREFVAAIYWSNGKTQYTDSVKGRFTISGDNAKNTVYLQMNSLNPEDTAVYYCVADKDETGFRTLPIAYDYWGQGTLVTVSSA
notes: as for B1
IC50 [1]: 3.5 nM | % lysis, redirected cyno T cell mediated killing of KG1a cells, flow cytometry [2]: 38% | EC50 (M), redirected cyno T cell mediated killing of KG1a cells, flow cytometry [2]: 8.8e-11 M | % lysis, redirected human T cell mediated killing of MOLM-13 cells, flow cytometry, E:T 10:1 [3]: 22% | EC50 (M), redirected human T cell mediated killing of MOLM-13 cells, flow cytometry, E:T 10:1 [3]: 2.3e-11 M | % lysis, redirected cyno T cell mediated killing of MOLM-13 cells, flow cytometry, E:T 10:1 [4]: 47% | EC50 (M), redirected cyno T cell mediated killing of MOLM-13 cells, flow cytometry, E:T 10:1 [4]: 1.7e-11 M | EC50 (M), human IL-6 secretion during human T cell mediated killing of CD123 transfected adherent target cells [5]: 3.8e-11 M | IC50 [6]: 440 nM | IC50 [7]: 3.6 nM | IC50 [8]: 12 nM | % lysis, redirected human T cell mediated killing of KG1a cells, flow cytometry, E:T 10:1 [9]: 24% | EC50 (M), redirected human T cell mediated killing of KG1a cells, flow cytometry, E:T 10:1 [9]: 2.8e-10 M | EC50 (M), IFN-γ secretion by cynomolgus T cells during killing of CD123 transfected adherent target cells [10]: 8.7e-10 M | EC50 (M), IFN-γ secretion by human T cells during killing of CD123 transfected adherent target cells [10]: 4e-10 M

B4: T017000129 (bispecific antibody)
chain: DVQLVESGGGLVQPGGSLRLSCVASGDVHKINFLGWYRQAPGKEREKVAHISIGDQTDYADSAKGRFTISRDESKNMVYLQMNSLKPEDTAVYFCRAFSRIYPYDYWGQGTLVTVSSGGGGSGGGGSGGGGSGGGGSGGGGSGGGGSGGGGSEVQLVESGGGLVQAGDSLRLSCAASGRTFSSYAMGWFRQAPGKEREFVAAISWSDGSTYYADSVKGRFTISRDNAKNTVYLQMNSLKPEDTAVYYCAADLTSTNPGSYIYIWAYDYWGQGTLVTVSSA
notes: Control: anti-TCR Nanobody linked to the irrelevant anti-RSV Nanobody; also called irrelevant multivalent polypeptide T017000129
IC50 [6]: 520 nM

B5: T0170055A02 (VHH)
VHH: EVQLVESGGGLVQPGGSLRLSCAASGDVHKINILGWYRQAPAKEREMVAHITIGDATDYADSAKGRFTISRDEAKNMVYLQMNSLKPEDTAVYFCRAYSRIYPYNYWGQGTLVTVSS
notes: also called T0170PMP055A02; T01700055A02; not shown: C-terminal triple Flag, His6 tag
EC50 [13]: 91 nM | EC50 [14]: 160 nM | Kd [15]: 210 nM | binding result [16]: no binding (tested: 1e-6 M)

B6: T0170056G05 (VHH)
VHH: EVQLVESGGGLVQPGGSLRLSCVASGDVHKINFLGWYRQAPGKEREKVAHISIGDQTDYADSAKGRFTISRDESKNMVYLQMNSLKPEDTAVYFCRAFSRIYPYDYWGQGTLVTVSS
notes: Monovalent anti-TCR Nanobody; also called T0170PMP056G05; T01700056G05; not shown: C-terminal triple Flag, His6 tag
EC50 [13]: 91 nM | EC50 [14]: 77 nM | Kd [15]: 150 nM | binding result [16]: no binding (tested: 1e-6 M)
